The source of these data is paper PMC7570020, “The PIFs Redundantly Control Plant Defense Response against Botrytis cinerea in Arabidopsis”.

Data set [1] has as its target T1, GST-PIF4 bHLH (Arabidopsis thaliana, UniProt Q8W2F3 257-306).
T1 chain: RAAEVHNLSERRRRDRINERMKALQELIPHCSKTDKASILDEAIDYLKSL
The data set is described as follows: EMSA; Chemiluminescent EMSA Kit (Beyotime), manufacturer's protocol; buffer, salt, pH and temperature not stated. The note with it: protein: recombinant; tags: N-terminal GST (pGEX); chain copies: 2; label: 5' biotin; blunt.

For data set [2], the target named is T2, GST-PIF5 (Arabidopsis thaliana, UniProt Q84LH8 1-444).
T2 sequence: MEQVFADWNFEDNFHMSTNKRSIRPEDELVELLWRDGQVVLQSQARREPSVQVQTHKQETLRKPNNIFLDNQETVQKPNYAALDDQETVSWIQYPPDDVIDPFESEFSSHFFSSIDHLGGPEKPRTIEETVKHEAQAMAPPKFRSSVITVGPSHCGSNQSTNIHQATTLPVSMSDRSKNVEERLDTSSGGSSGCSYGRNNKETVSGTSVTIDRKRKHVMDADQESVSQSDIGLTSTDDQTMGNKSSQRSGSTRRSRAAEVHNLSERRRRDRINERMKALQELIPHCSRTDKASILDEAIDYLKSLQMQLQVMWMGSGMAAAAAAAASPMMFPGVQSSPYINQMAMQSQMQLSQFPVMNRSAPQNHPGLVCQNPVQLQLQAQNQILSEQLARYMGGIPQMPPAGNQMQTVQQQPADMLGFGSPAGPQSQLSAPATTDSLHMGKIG
Described as above. The note with it: protein: recombinant; tags: N-terminal GST (pGEX); chain copies: 2; label: 5' biotin; blunt.

Data set [3] deals with T1, GST-PIF4 bHLH. Description: competition; increasing unlabeled competitor against labeled N1; Chemiluminescent EMSA Kit (Beyotime), manufacturer's protocol; buffer, salt, pH and temperature not stated. Particulars: protein: recombinant; tags: N-terminal GST (pGEX); chain copies: 2; label: none; blunt. On the technique in general: A gel shift assay detects complexes by their altered migration in electrophoresis.

Data set [4] deals with T2, GST-PIF5. The description is as above. The note with it: protein: recombinant; tags: N-terminal GST (pGEX); chain copies: 2; label: none; blunt.

B1: ERF1 G-box probe (dsDNA)
DNA 1: GAGCCAAAAACTTTGAACACGTGCGGGATATCAAATAATCA
DNA 2: TGATTATTTGATATCCCGCACGTGTTCAAAGTTTTTGGCTC
As for B1, the binding result in data set [1] and in data set [2] was “binds” throughout.

B2: ERF1 competitor (dsDNA)
DNA 1: GAGCCAAAAACTTTGAACACGTGCGGGATATCAAATAATCA
DNA 2: TGATTATTTGATATCCCGCACGTGTTCAAAGTTTTTGGCTC
As for B2, the binding result in data set [3] and in data set [4] was “binds” throughout.
